Experimental data from the RNAGym collection of RNA variant scans (doi:10.1073/pnas.2313332121).

B1: TPR t1 (parent)
chain: GACCAAUCUGCCCUCAGAGCUCGAGAACAUCUUCGGAUGCAGAGGAGGCAGGCUUCGGUGGCGCGAUAGCGCCAACGUCCUCAACCUCCAAUGCAUCCCACCACAUGAUGAUGCCUGAAGAGCCUUGGUUUUUUG

Variants of: B1
Experiment: polymerase ribozyme fitness, log enrichment relative to wild type (log ratio); higher = more active; in vitro selection for triplet polymerase activity
How it was run: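 Genotype fitness is the logarithm of its enrichment divided by wild-type enrichment, using inverse-variance-weighted averages of replicates. That logarithm is base 2. Enrichment was measured by Illumina sequencing of input and output libraries from one triplicate in vitro selection round, with frozen incubation at −7 °C, on PCR-built, transcribed mutant libraries of each subunit of a heterodimeric triplet polymerase ribozyme, retaining genotypes with ≥10 input reads and ≥1 read per output.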

Variant	polymerase ribozyme fitness (log ratio)
C28U G39C C53U G61U	-2.31
C15G G19A C73U U112A G122U	-3.84
C4G C104U	-0.878
G60C U112G	-0.433
U9C C22U C34A A43G G77A U106A	-7.59
C40U G42C C53A C104A	-4.78
C11A C13G C31U A46U U109G	-7.98
G44A C72A C98U G110A	-4.64
C13A G69C	-3.15
C11G C15G A90C G110A	-4.74
U81A A83U C115A	-1.27
A43U C73A C104A G113U	-5.13
C40G G47U C64U G93U U129C U133G	-3.04
C15A U106G	-3.3
C8A C86U G110A G120U	0.0948
G48U C56A G69U C89A C115A A118U	-1.82
U55C G93C U133A	-0.554
U9C G36U G63C U112C G128C	-1.66
A37U G122A U130C U131A G135U	-1.18
A37U C82G G110C	-6.53
U7G C70A U87A A121G	1.36

Variant	polymerase ribozyme fitness (log ratio)
G10C C49G U81C G120C	-4.69
A18C G19A C85U G120A	-3.39
G44U A46U C89A	-0.411
C28U A90U A111U	-5.21
G48U G135U	-2.2
U54A C82U	-0.0762
A18U C62G	-4.86
G10C A24G A46C C86G	-3.81
C70G A121U	-0.929
C8A G45A A90U G117A	-1.14
G45C C72U C85G	-3.66
G36A C72A C97U A121G	1.78
C22A A27G G60C A83G	-6.08
C20G A24G G45C C73A C88A C115U	-5.98
G48U A90U	-1.38
C56U A100C U112C	0.715
A84U U92G	-3.25
C40U C49A A50G C62U A105G	-4.71
G52U G58C C79U	-0.312
C34A C56U	-2.12
C15U A18U G44U G69U	-5.2

Variant	polymerase ribozyme fitness (log ratio)
A5U A66C G113U C124A	-4.62
C8U C62G U106G U112A	-2.63
G10U C49U G63A A100C	-3.83
G39U U78C A121U	1.16
C22U G63C C88A U130C	-5.23
A18C A111G	0.883
C3U U54C G61A A90C	-0.844
G61C A75U A84C A95C	-1.21
G42C C89U C101G	-2.74
A27G C40G G107C C115U G120U U131A	-5.69
C12A A43U A46U G71U	-3.4
G10A A27C C56A G57A C72U U78G G93C	-4.76
G47C C72U A90G C123U	-1.64
G10A G60U	-0.0901
A27C C72U C124U	-0.653
G47C C85G	-2.21
C89A U92G U116G	-5.83
G63U U132A	-0.852
G19A G44C U96A G120C	-3.85
C12G U21A C31U G60C U87C A95G G120U U133A	-4.31
G63A U129A	-1.64

Variant	polymerase ribozyme fitness (log ratio)
C3G G61A A90G C99U	-3.39
C4G G47A C79A A90G G120A	-3.84
A43C C56G C62G A68G G120A	-7.42
C34A A50G G93A	-3.46
G60C G127U	-0.837
G57U A66C	-1.65
C28A C85U A121U	-3.69
G48A U112A	0.917
A37U C64U	-1.67
U9A C40G	0.644
A37G G51C G77C C80A G120C G128C	-5.93
C8U C11G G48C C56U C64U C89U G117U	-5.48
A37U G110A	-1.04
C20A G39U G42A U55C C99U G113C G122A C123U	-6.79
A6G U38G G47U G117A G120C	-5.06
C88G A91C	-2.11
C53G G128C	-2.03
A6U C89U	-0.0502
C72U U96C G135U	-1.42
C22G U54A	-3.16
A24G G36C C49A G71U	-3.84
